# From paper PMC6426329 (Journal of immunology (Baltimore, Md. : 1950), 2018)
# “Also recorded” adds a separate entry of the source.
# Target: DRB4 protein (Homo sapiens, UniProt P01903+P13762, G164S)
# Test: Peptide binding competition assay
# Conditions: in vitro competition assay
row,Molecule,Binding to DRB4 (in words)
1,PPI 12–23: truncated version of the PPI 9–28 peptide (ALLALWGPDPAA),able to bind; also recorded: detectable binding

# Target: Recombinant DRB4 protein (DRA1/B4*01:01) (human) (UniProt P01903)
# Test: peptide binding competition assay
# Conditions: not given
row,Molecule,IC50 [µM]
1,GAD65 265–284 peptide,10
2,SDLERRILEAKQKGFVPFLV [GAD65 313–332 peptide],22
3,VAPVIKARMMEYGTTMVSYQ [GAD65 529–548 peptide],2.8
4,HVDVFKLWLMWRAKGTTGFE [GAD65 449–468 peptide],32
5,PGGAISNMYAMMIARFKMFP [GAD65 241–260 peptide],0.6
6,ATHQDIDFLIEEIERLGQDL [GAD65 566–585 peptide],12
7,LRTLEDNEERMSRLSKVAPV [GAD65 513–532 peptide],5.9
8,DVMNILLQYVVKSFDRSTKV [GAD65 113–132 peptide],1.4
9,KVNFFRMVISNPAATHQDID [GAD65 553–572 peptide],7.8
10,DERGKMIPSDLERRILEAKQ [GAD65 305–324 peptide],29
11,ICKKYKIWMHVDAAWGGGLL [GAD65 353–372 peptide],0.9
12,NTNMFTYEIAPVFVLLEYVT [GAD65 201–220 peptide],1.2
13,IAPVFVLLEYVTLKKMREII [GAD65 209–228 peptide],21
